This data set can be described thus: label from the status in PepcDB records.
In the case of “MAYFYLAEAGDWSFRTVWHDRFFTVLKHHPARTEKVEQADYIFLDADFALETNWPYYGSQRKAILKGDRFPTDEEILAFLFDHPVSGYGKPLVLINMNPLAQWPAIAQVLPDVVVVSHCHTLGNYRVGIDVSFPPMPLLDQHCYPSRDRSTLLSFRGANSHPVREQLQRLHQPPEIAAELIQQSYWGTLNYVDEAEGLSAEQQVYTDLIARSRFSVAPRGHDIFSYRLLEVMAGGAIPVILADDWVLPFSELLDWSEFSLSVAEDRCWELPQLLQAISTDQWQVMQQHLQQVYQHYFYSLARQVQTLWQILDQRSLHPSASEVEIEAVLLSQAERYRLKGDLEAAATYLATLPRSPARILEQARLALTQQQPKAALALLDSMVMPEAEQGEHYNLLGVAQTQLGEWDTAIAIYRQGLQAQPHHPKLRTNLCVALRQQEQWEEALALSQALLEEVPAAIDRLLLQADTLNLAGRYDQALSLYQQVVAREPERANAQLAIAEILLRQGKAEGWDIYEARFAAEPSLAALAAHYPQPRWQGVELGQRSLLVWGEQGYGDQIQFSRYLWVLRDRYPQARIQFQTDAVLVPLFAEPLASLGIKVIPAQITEELFDFQVPLLSLPRLVWPSLKDIPYREGWLPCPLPPPREDQNHKFRVGIVWLAGQRAGIQKSATADRRSCSLEAMLELVRESMQRSDLEVVSLQLGYEGRLPEGIQDWSNRLVDFSATARVLMELDLLVTVDTAIVHLAGAMGTPAKVLLAYPPDWRWQQNLELTWYSSIELCYFAHLLSSF”, the protein production result was “failed”.

Turning to “MAYNSNSNNNNNNIVVVFDFDKTIIDVDSDNWVIDELGFTDLFNQLLPTMPWNTLMDRMMKELHDQGKTIEEIKQVLRTIPIHPRVVPAIKSAHDLGCELRIVSDANMFFIETIVEHLGISELFSEINSNPGYVDERGTLKISPYHDFTKSPHSCSCGTCPPNMCKGLIIERIQQSLAKEGKKKMIYLGDGAGDYCPSLKLNTEDYVMPRKNFPVWDLISQNPMLIKAAIREWTDGQSMEMILIGTIEEIRLEEEKEKMLTSAENNCKMQTISIGINNVHHEPILPRALRVSQSS”, the protein production result is on record as “failed”.

Consider “MAYVSMGEAHRRITEYLNRFCDAVSYQDSSTLCRLLSFSSNSPPLLSLADALNVFQDSSSLIRQSDRFSEYGEILAHVFRSLQSYRVGNLVEAYLAFDKFANAFVQEFRNWESAWALEALYVVCYEIRVLAEKADKDLTSNGKSPEKLKAAGSLLMKVFGVLAGKGPKRVGALYVTCQLFKTYFKLGTVNLCRSVIRSIETARIFDFEEFPRRDKVTYMYYTGRLEVFNENFPAADTKLSYALQNCNPKRERNIRMILKYLVPVKLSLGIIPKDELLRNYNLHEYTKIVQALRKGDLRLLRHALQEHEDRFLRSGVYLVLEKLELQVYQRLMKKIYINQKLSDPARAHQLKLEGIAKALRWLDMDMDLDEVECIMTILIYKNLVKGYLAHKSKVVVLSKQDPFPKLNGKPVSS”, for which the protein production result is listed as “failed”.

Turning to “MCEGRRAAFQAVDNCSSGNALTSKCGEKEAGVAGDAATSPKGLTWDPAQCFYSPACNAENITSKNRSPALLSRPHAQPGESERLITVLSNRDRKASPGAAGDSGLGGASPSGRGRDGTRGWGENWLPPPAAPQATSACSGAGSGAVGAARPCSSRELAVVGGGGDASGGCVGCRAGDRTAAPSSRCPEPTWSNCSEATAPAHTGEEAAVAAVAAAPAMLCYVTRPDAVLMEVEVEAKANGEDCLNQVCRRLGIIEVDYFGLQFTGSKGESLWLNLRNRISQQMDGLAPYRLKLRVKFFVEPHLILQEQTRHIFFLHIKESLLAGHLQCSPEQAVELSALLAQTKFGDYNQNTAQYSYEDLCEKELSSSTLNSIVGKHKELEGISQASAEYQVLQIVSAMENYGIEWHAVRDSEGQKLLIGVGPEGISICKEDFSPINRIAYPVVQMATQSGKNVYLTVTKESGNSIVLLFKMISTRAASGLYRAITETHAFYRCDTVTSAVMMQYSRDLKGHLASLFLNENINLGKKYVFDIKRTSKEVYDHARRALYNAGVVDLVSRNDQSPPSSPLKSSDSSMSCSSCEGLSCQQTRVLQEKLRKLKEAMLCMVCCEEEINSTFCPCGHTVCCESCAAQLQSCPVCRSRVEHVQHVYLPTHTSLLNLTVI”, the protein production entry was “failed”.

Regarding “MCGSERFQFRSGAKPLIRGRPLDSDMESLHPRVRLLWVLSTVIQASVLGVIAYLVDRFAVSLPQTVVVGGWVVLVLLGVAHAIAAHRIWRFDLQDDALFLLRGVVTRTDTSVPYVRVQHVDTTRGPVERAIGLASVVVYTAGTRGADITIPGLRPERATELREQLRDLANESEATDAV”, the protein production result was “failed”.

Turning to “MCHQLSKKTKKALDQELKRKTTLKNNLFSRYLLFRYSLALFFFVNLYWTFPLIYKPSVYVILPVSLLILIVLACAEQFKLYSLQEVYLRNTERVFKTQIVVQILLLIINIFPQQLSVAIPFFSNNMAAHVFLAVFQFLGLFICWYNLKRIKQIKNNEDKFYNRFYNHIEKYI”, the protein production entry was “failed”.

Take “MCIGMDIRDFFAQSAGRWFSQRTSHHLAFKQTESGKSQLTIELLSVDDPAVIALCQQYDMDPAWAVCGARVSWDGTMEWDNEKHEGSTVLVPIMDQGSRMEGKLLREMGYAEKAPVAGRFSMGSDGALTLITEYETIYSEERLWFASPNLRLRTSILKRFGGFSMASFCSEIRLGVTQPANSLEHHHHHH”: the protein production result is given as “not failed”.

For the sequence “MCLALPAQIDQVLEDNKAIVNLGGITKEISTVLLEQVSEGEYVIIHAGFALTKLDEREANKTLSLFAHMLKDG”, the protein production result is reported as “not failed”.

“MCNETWQSRAEEYIDDSRRLGYALTTTSAYLLSFARFVDQRGHSGALTSDIILDWAQSTDSKKPTTWTKRLINIRRFISHCSRVDGKSEVPRVDVFGRPKGRPTPHIYTELEISELLAAARELPGTLPSATYETLFGLLASTGLRLSEALHLRCSDVDLRSGRLIVRQGKLGKSRLVPLHATVCEVLSRYLGVRQQLPLTSESYFFVSQTGGLLPRRTVEGVFIRLRTKLGWAPRGNWRAPRIHDLRHTFICRRVTQWHKEGADIDNAMLYVSTYVGHVAVTYTYWYLTGIPELMTVVGQRFEAFAESARGAENAE”: the protein production entry is on record as “failed”.

For “MCPEFQRKAAGAPRMGAMLARCVLTAALALQAAAAARAVEIEIGVASRGVVDGLEFVQFSADERTMATTHWGNVVHLWDLKTLRVRSSVSVANRDFDFDLSPDGRALAVWNEEGKGEIELYDTDNGQPARALPAPRLPQGESRRGRSLVYRDDGTLEFVSHGWIGGHARKAYLLAVPAGQPRAAETPLPALVNSVAFRKSAVMDQGRLLLAGVDGADDELAIMDIASGRMLAREPGFRIASYAADARRAVFVEADGKQRILAFDFSSRSLSTLPRWTGSGKFQPYRFVAGTRFLVLAPDEPDASTRRAAPGIYDLQTRRLHRLPPDADPGSIDVWGATASYVLCNPDHTACQAEVADLAISRKLGTFAVQPSADFRTWISPSGSMVVVGGADDGTMMVWSVKEQRVIGPN”, the protein production entry is reported as “failed”.

Regarding “MCQMPCQFSWPYTHYFTQTKNKEKILNKLIVFTGGPGAGKTSVIEQLKTQGFICAPETGRHVIQMQVANHGSALPWNDKQAFRDEMTKEEVSNYRSFNVRQGDVFFDRSIVDVYGYSKLEQLPISHELITHCQTLRYHSQVFIFPPWASIFSNDEERKQDFSEAVATYQQMVDAYHKFGYQLIEVPKMSVEDRVAFILGSVIELEHHHHHH”, the protein production entry is “not failed”.

As for “MCQSNQIVSHFLSHRNVTNELAEKISKDHYSYKPAETSMSAEELVKHILTSFHLFANVIKEGNASPFQNKQEETETDLNVLAKTYTEKTVAILEQLTEEQLDREIDLTSAFGRKVTGRALLQLAMEHEIHHKGNLFVYVREMGHTELPFYQQRM”, the protein production result is “not failed”.

As for “MCRGPLGSYESLTRPSFAFIVISPSATLLTHAPGSQEPHVSRHNRRRSTLHKRATVFGGGTVAVAAVVATVNIASADQVSPTPRTASKADHAVFVQGNELAGNTIHVFRRGDDGKLTAAGKYATGGKGGDQVDAPTDSLASQGSLVYDRRSGRLLALNAGSGTLTSYAVHGQKLTDRQTVPTGGDFPVGIAVSGDLAYVMNAGGAGSVQGFRITTMGLKPLSGSLRTLGLKNEKVPLFSSSPGQAAFTPDGRNLVVTTKSANTVEVFPIGRDGRPAHKPVVNKSAGMVPFAIAFDKTGRMLVAEAAESTVSTYKVRRNGELQVLQKPLPNGQDTLCWLERAGDFFYGGNTGNSTVSGYRMDARGRLALTNEAGIAAAPSAKSQGVIDIAVAADKFVYVQNATSGTVDGFRVGRTGALTKVTTVTDLPAFAESGMEGIAAV”, the protein production entry was “failed”.

Take “MCSNNNTSSGSYGELQLHDESSGSCRKKQKKDKVRRRGPGVAELEKIRLQEEYKPPLSSSPSLPNIDHHHHTLFAPASSVYDLVMTSPNFSFPEKLASTLPVFPISPDATQNRSMGITPVQETGTTTSNPIAIDSPTSIPRHYPRFIPLGLQYEQQQQKLKDLDETMQWRSKKPFYSFIPSGDPSNDDQEQRPCDLFGSAADHGIDLNLKL”: the protein production entry is “failed”.

Regarding “MCSTNKNLACCKGDNVFDGQINGNESYPQVVNKQLPPKVLEPIIQNKIVEIPKEVYLEKIVEVPQIKTVERIVEQIRPVIKYKNVYKPKIVYVEKVKNVDKIIYQEKIVEVPQIKTVEKIVEVPVYVNRERIITVPRYMVVEKVIPVLKTSKRESIMEVPEVNCPHIDISKEVEDKEEIPINELKENQTISLADEKEIQILNDLTSQKVDSNATINMEGEQDTTVDTITQENFCGTVSCNFLPNYPNFSKIGNPLCKGGPEKEKRFSSISIYKSKDSGFPSIRIAKTPQMFQRNLYCSYA”, the protein production entry is reported as “failed”.

Turning to “MCTFCSIINRELEGYFVYEDEKFAAILDKYPVSLGHTLVIPKKHFENYLEADEDTLAELAKVVKLVSLGIKDAVKADGLRLLTNIGRSAGQVIFHLHVHIIPTWEGDYPDIFKSFKPRKEQEKEYYELLQKIIRESIENLKRKIGDYKWG”, the protein production result is reported as “not failed”.

Take “MCVRLENENFKAELSESGAELTSLKSKNTDNEYIWTANSSYWGRHAPILFPIVGKVKDNKYRIADKVYNLSQHGFARDMEFEVEDNASDRAVFKLVWNDETLEKYPYKFELRVIYVLKDSTVDVTYNVKNVDDKDIFFSIGAHPGFNCPVIGKQSENDELQFEDYYIEFEKRETTGVVKLNSSNLLSRNTSPFLYASNILNLSEKLFKQGALILKDLDSTSISLKNDKNTTSVTVSFEGFPYVGLWSKPEGAPFVCIEPWFGHADYEDFNGDFREKEDGLKLEVGKEFECTYSITIGELEHHHHHH”: the protein production result is on record as “not failed”.

As for “MCYTGDMEDVKHPRLTRRGRIYWFRAKVPADLRSHYAPKTEIIYSLKTSDPREALVRVRIASVKADQEFEVARRIPKEEVRTSLSDDEAERLVAIYYQVRLEEDEEIRIGGKQEADLYLGVKAQLEALGIGHANYTNEEAVAEYGLSQREYQKNQETLEFMEPLYREALSTGNTEIIHDELDDILEANSIKLDRTSSQYRKLAFSILKATVKVLDVEKRRNSGEPIDTPPEPPPLFKPAVTAVPANSLRLSEVFERWKVERKPAKRSLMEWDTAIRRFTALYGDKPVESITKAEVVEFKDSLLQQGKAAATVLKQVGAIKSTLQYAVDNGKLSVNPATGVKVAGKRASEVRRLPYDAEDLKAIFSSPVFTCGDRPLAGSGEASFWLPLLALFTGARLNEIGQILVSDVRELDGIHYLDLNTEGEGKSLKNEGSRRKVPLHPEIIRLGFLDYVRKQGESLGSDSRVFDKLEPNSNGVLTANFSKWWGRYARENGIAKGQKVFHSFRHSFKDACRESSLPQDIHDALTGHSPNNVGGRYGQGFTVRRLGEEMAKLSYPGLDLSGLMKP”, the protein production entry is recorded as “failed”.

In the case of “MDADHLQRIFDEAVQAHGEGRLDEAEAGFRAVLEVLPHEGEALFGLGLTLMGLRRFSEAIPPLKAAAAEPGAEPVRFLCLAQGLYMTGAFAEAAETFAAVAHQDGFNDGARLTWARSAAYAALDDTDADSALALYGQIAGPVAEDLDTVAREGFSTLVAFERLAAARKLGQWLEARAPDDAIRAHELRVLTDPQIDRAPPAYVEALFDAFAERFDHQLLDNLEYQTPTLLAEMIGVADRRFTHMLDLGCGTGLAGPPLRARVARLTGVDLSTAMLAKAAERGGYDALVHAEAVAFLRETPDRFDLIVAADVFSYLGDLGDILAAAAGALSDDGLLAFSVEQGETWWRLLPSARYAHGDDYVRAAGAGVGLEVIQHRQTPLRRQADAAIPGGLYVLRKIRAA”, the protein production entry is listed as “failed”.

Values taken from a protein production outcome set (Wang et al. 2014).
